Reference: patent publication US20260167699A1 (Chugai, published 2026)

B1: GpH7-A5/GpH7-B3 variant P331_11K/GpL16-k0 (antibody, human IgG1, kappa)
heavy 1: not shown
heavy 2: not shown
light: DIVMTQSPLSLPVTPGEPASISCQASESLVHSNRNTYLHWYLQKPGQSPQLLIYKVSNRFSGVPDRFSGSGSGTDFTLKISRVEAEDVGVYYCSQNTHVPPTFGQGTKVEIERTVAAPSVFIFPPSDEQLKSGTASVVCLLNNFYPREAKVQWKVDNALQSGNSQESVTEQDSKDSTYSLSSTLTLSKADYEKHKVYACEVTHQGLSSPVTKSFNRGEC
notes: He Ab; copies: 1 + 1 + 2
B2: GpH7-A5/GpH7-B3 variant Q295_01G/GpL16-k0 (antibody, human IgG1, kappa)
heavy 1: not shown
heavy 2: not shown
light: DIVMTQSPLSLPVTPGEPASISCQASESLVHSNRNTYLHWYLQKPGQSPQLLIYKVSNRFSGVPDRFSGSGSGTDFTLKISRVEAEDVGVYYCSQNTHVPPTFGQGTKVEIERTVAAPSVFIFPPSDEQLKSGTASVVCLLNNFYPREAKVQWKVDNALQSGNSQESVTEQDSKDSTYSLSSTLTLSKADYEKHKVYACEVTHQGLSSPVTKSFNRGEC
notes: He Ab; copies: 1 + 1 + 2
B3: GpH7-A5/GpH7-B3 variant P331_13S/GpL16-k0 (antibody, human IgG1, kappa)
heavy 1: not shown
heavy 2: not shown
light: DIVMTQSPLSLPVTPGEPASISCQASESLVHSNRNTYLHWYLQKPGQSPQLLIYKVSNRFSGVPDRFSGSGSGTDFTLKISRVEAEDVGVYYCSQNTHVPPTFGQGTKVEIERTVAAPSVFIFPPSDEQLKSGTASVVCLLNNFYPREAKVQWKVDNALQSGNSQESVTEQDSKDSTYSLSSTLTLSKADYEKHKVYACEVTHQGLSSPVTKSFNRGEC
notes: He Ab; copies: 1 + 1 + 2
B4: GpH7-A5/GpH7-B3 variant P331_18N/GpL16-k0 (antibody, human IgG1, kappa)
heavy 1: not shown
heavy 2: not shown
light: DIVMTQSPLSLPVTPGEPASISCQASESLVHSNRNTYLHWYLQKPGQSPQLLIYKVSNRFSGVPDRFSGSGSGTDFTLKISRVEAEDVGVYYCSQNTHVPPTFGQGTKVEIERTVAAPSVFIFPPSDEQLKSGTASVVCLLNNFYPREAKVQWKVDNALQSGNSQESVTEQDSKDSTYSLSSTLTLSKADYEKHKVYACEVTHQGLSSPVTKSFNRGEC
notes: He Ab; copies: 1 + 1 + 2
B5: GpH7-A5/GpH7-B3 variant P331_14T/GpL16-k0 (antibody, human IgG1, kappa)
heavy 1: not shown
heavy 2: not shown
light: DIVMTQSPLSLPVTPGEPASISCQASESLVHSNRNTYLHWYLQKPGQSPQLLIYKVSNRFSGVPDRFSGSGSGTDFTLKISRVEAEDVGVYYCSQNTHVPPTFGQGTKVEIERTVAAPSVFIFPPSDEQLKSGTASVVCLLNNFYPREAKVQWKVDNALQSGNSQESVTEQDSKDSTYSLSSTLTLSKADYEKHKVYACEVTHQGLSSPVTKSFNRGEC
notes: He Ab; copies: 1 + 1 + 2
B6: GpH7-A5/GpH7-B3 variant Q295_06M/GpL16-k0 (antibody, human IgG1, kappa)
heavy 1: not shown
heavy 2: not shown
light: DIVMTQSPLSLPVTPGEPASISCQASESLVHSNRNTYLHWYLQKPGQSPQLLIYKVSNRFSGVPDRFSGSGSGTDFTLKISRVEAEDVGVYYCSQNTHVPPTFGQGTKVEIERTVAAPSVFIFPPSDEQLKSGTASVVCLLNNFYPREAKVQWKVDNALQSGNSQESVTEQDSKDSTYSLSSTLTLSKADYEKHKVYACEVTHQGLSSPVTKSFNRGEC
notes: He Ab; copies: 1 + 1 + 2
B7: GpH7-A5/GpH7-B3 variant Q295_07I/GpL16-k0 (antibody, human IgG1, kappa)
heavy 1: not shown
heavy 2: not shown
light: DIVMTQSPLSLPVTPGEPASISCQASESLVHSNRNTYLHWYLQKPGQSPQLLIYKVSNRFSGVPDRFSGSGSGTDFTLKISRVEAEDVGVYYCSQNTHVPPTFGQGTKVEIERTVAAPSVFIFPPSDEQLKSGTASVVCLLNNFYPREAKVQWKVDNALQSGNSQESVTEQDSKDSTYSLSSTLTLSKADYEKHKVYACEVTHQGLSSPVTKSFNRGEC
notes: He Ab; copies: 1 + 1 + 2
B8: GpH7-A5/GpH7-B3 variant P331_19Q/GpL16-k0 (antibody, human IgG1, kappa)
heavy 1: not shown
heavy 2: not shown
light: DIVMTQSPLSLPVTPGEPASISCQASESLVHSNRNTYLHWYLQKPGQSPQLLIYKVSNRFSGVPDRFSGSGSGTDFTLKISRVEAEDVGVYYCSQNTHVPPTFGQGTKVEIERTVAAPSVFIFPPSDEQLKSGTASVVCLLNNFYPREAKVQWKVDNALQSGNSQESVTEQDSKDSTYSLSSTLTLSKADYEKHKVYACEVTHQGLSSPVTKSFNRGEC
notes: He Ab; copies: 1 + 1 + 2
B9: GpH7-A5/GpH7-B3 variant Q295_13S/GpL16-k0 (antibody, human IgG1, kappa)
heavy 1: not shown
heavy 2: not shown
light: DIVMTQSPLSLPVTPGEPASISCQASESLVHSNRNTYLHWYLQKPGQSPQLLIYKVSNRFSGVPDRFSGSGSGTDFTLKISRVEAEDVGVYYCSQNTHVPPTFGQGTKVEIERTVAAPSVFIFPPSDEQLKSGTASVVCLLNNFYPREAKVQWKVDNALQSGNSQESVTEQDSKDSTYSLSSTLTLSKADYEKHKVYACEVTHQGLSSPVTKSFNRGEC
notes: He Ab; copies: 1 + 1 + 2
B10: GpH7-A5/GpH7-B3 variant P331_16H/GpL16-k0 (antibody, human IgG1, kappa)
heavy 1: not shown
heavy 2: not shown
light: DIVMTQSPLSLPVTPGEPASISCQASESLVHSNRNTYLHWYLQKPGQSPQLLIYKVSNRFSGVPDRFSGSGSGTDFTLKISRVEAEDVGVYYCSQNTHVPPTFGQGTKVEIERTVAAPSVFIFPPSDEQLKSGTASVVCLLNNFYPREAKVQWKVDNALQSGNSQESVTEQDSKDSTYSLSSTLTLSKADYEKHKVYACEVTHQGLSSPVTKSFNRGEC
notes: He Ab; copies: 1 + 1 + 2
B11: GpH7-A5/GpH7-B3 variant Q295_05P/GpL16-k0 (antibody, human IgG1, kappa)
heavy 1: not shown
heavy 2: not shown
light: DIVMTQSPLSLPVTPGEPASISCQASESLVHSNRNTYLHWYLQKPGQSPQLLIYKVSNRFSGVPDRFSGSGSGTDFTLKISRVEAEDVGVYYCSQNTHVPPTFGQGTKVEIERTVAAPSVFIFPPSDEQLKSGTASVVCLLNNFYPREAKVQWKVDNALQSGNSQESVTEQDSKDSTYSLSSTLTLSKADYEKHKVYACEVTHQGLSSPVTKSFNRGEC
notes: He Ab; copies: 1 + 1 + 2
B12: GpH7-A5/GpH7-B3 variant Q295_09D/GpL16-k0 (antibody, human IgG1, kappa)
heavy 1: not shown
heavy 2: not shown
light: DIVMTQSPLSLPVTPGEPASISCQASESLVHSNRNTYLHWYLQKPGQSPQLLIYKVSNRFSGVPDRFSGSGSGTDFTLKISRVEAEDVGVYYCSQNTHVPPTFGQGTKVEIERTVAAPSVFIFPPSDEQLKSGTASVVCLLNNFYPREAKVQWKVDNALQSGNSQESVTEQDSKDSTYSLSSTLTLSKADYEKHKVYACEVTHQGLSSPVTKSFNRGEC
notes: He Ab; copies: 1 + 1 + 2
B13: GpH7-A5/GpH7-B3 variant Q295_10E/GpL16-k0 (antibody, human IgG1, kappa)
heavy 1: not shown
heavy 2: not shown
light: DIVMTQSPLSLPVTPGEPASISCQASESLVHSNRNTYLHWYLQKPGQSPQLLIYKVSNRFSGVPDRFSGSGSGTDFTLKISRVEAEDVGVYYCSQNTHVPPTFGQGTKVEIERTVAAPSVFIFPPSDEQLKSGTASVVCLLNNFYPREAKVQWKVDNALQSGNSQESVTEQDSKDSTYSLSSTLTLSKADYEKHKVYACEVTHQGLSSPVTKSFNRGEC
notes: He Ab; copies: 1 + 1 + 2
B14: GpH7-A5/GpH7-B3 variant Q295_11K/GpL16-k0 (antibody, human IgG1, kappa)
heavy 1: not shown
heavy 2: not shown
light: DIVMTQSPLSLPVTPGEPASISCQASESLVHSNRNTYLHWYLQKPGQSPQLLIYKVSNRFSGVPDRFSGSGSGTDFTLKISRVEAEDVGVYYCSQNTHVPPTFGQGTKVEIERTVAAPSVFIFPPSDEQLKSGTASVVCLLNNFYPREAKVQWKVDNALQSGNSQESVTEQDSKDSTYSLSSTLTLSKADYEKHKVYACEVTHQGLSSPVTKSFNRGEC
notes: He Ab; copies: 1 + 1 + 2
B15: GpH7-A5/GpH7-B3 variant Q295_14T/GpL16-k0 (antibody, human IgG1, kappa)
heavy 1: not shown
heavy 2: not shown
light: DIVMTQSPLSLPVTPGEPASISCQASESLVHSNRNTYLHWYLQKPGQSPQLLIYKVSNRFSGVPDRFSGSGSGTDFTLKISRVEAEDVGVYYCSQNTHVPPTFGQGTKVEIERTVAAPSVFIFPPSDEQLKSGTASVVCLLNNFYPREAKVQWKVDNALQSGNSQESVTEQDSKDSTYSLSSTLTLSKADYEKHKVYACEVTHQGLSSPVTKSFNRGEC
notes: He Ab; copies: 1 + 1 + 2
B16: GpH7-A5/GpH7-B3 variant P331_15Y/GpL16-k0 (antibody, human IgG1, kappa)
heavy 1: not shown
heavy 2: not shown
light: DIVMTQSPLSLPVTPGEPASISCQASESLVHSNRNTYLHWYLQKPGQSPQLLIYKVSNRFSGVPDRFSGSGSGTDFTLKISRVEAEDVGVYYCSQNTHVPPTFGQGTKVEIERTVAAPSVFIFPPSDEQLKSGTASVVCLLNNFYPREAKVQWKVDNALQSGNSQESVTEQDSKDSTYSLSSTLTLSKADYEKHKVYACEVTHQGLSSPVTKSFNRGEC
notes: He Ab; copies: 1 + 1 + 2
B17: GpH7-A5/GpH7-B3 variant Q295_04F/GpL16-k0 (antibody, human IgG1, kappa)
heavy 1: not shown
heavy 2: not shown
light: DIVMTQSPLSLPVTPGEPASISCQASESLVHSNRNTYLHWYLQKPGQSPQLLIYKVSNRFSGVPDRFSGSGSGTDFTLKISRVEAEDVGVYYCSQNTHVPPTFGQGTKVEIERTVAAPSVFIFPPSDEQLKSGTASVVCLLNNFYPREAKVQWKVDNALQSGNSQESVTEQDSKDSTYSLSSTLTLSKADYEKHKVYACEVTHQGLSSPVTKSFNRGEC
notes: He Ab; copies: 1 + 1 + 2
B18: GpH7-A5/GpH7-B3 variant Q295_12R/GpL16-k0 (antibody, human IgG1, kappa)
heavy 1: not shown
heavy 2: not shown
light: DIVMTQSPLSLPVTPGEPASISCQASESLVHSNRNTYLHWYLQKPGQSPQLLIYKVSNRFSGVPDRFSGSGSGTDFTLKISRVEAEDVGVYYCSQNTHVPPTFGQGTKVEIERTVAAPSVFIFPPSDEQLKSGTASVVCLLNNFYPREAKVQWKVDNALQSGNSQESVTEQDSKDSTYSLSSTLTLSKADYEKHKVYACEVTHQGLSSPVTKSFNRGEC
notes: He Ab; copies: 1 + 1 + 2
B19: GpH7-A5/GpH7-B3 variant P331_20W/GpL16-k0 (antibody, human IgG1, kappa)
heavy 1: not shown
heavy 2: not shown
light: DIVMTQSPLSLPVTPGEPASISCQASESLVHSNRNTYLHWYLQKPGQSPQLLIYKVSNRFSGVPDRFSGSGSGTDFTLKISRVEAEDVGVYYCSQNTHVPPTFGQGTKVEIERTVAAPSVFIFPPSDEQLKSGTASVVCLLNNFYPREAKVQWKVDNALQSGNSQESVTEQDSKDSTYSLSSTLTLSKADYEKHKVYACEVTHQGLSSPVTKSFNRGEC
notes: He Ab; copies: 1 + 1 + 2
B20: GpH7-A5/GpH7-B3 variant Q295_02A/GpL16-k0 (antibody, human IgG1, kappa)
heavy 1: not shown
heavy 2: not shown
light: DIVMTQSPLSLPVTPGEPASISCQASESLVHSNRNTYLHWYLQKPGQSPQLLIYKVSNRFSGVPDRFSGSGSGTDFTLKISRVEAEDVGVYYCSQNTHVPPTFGQGTKVEIERTVAAPSVFIFPPSDEQLKSGTASVVCLLNNFYPREAKVQWKVDNALQSGNSQESVTEQDSKDSTYSLSSTLTLSKADYEKHKVYACEVTHQGLSSPVTKSFNRGEC
notes: He Ab; copies: 1 + 1 + 2
B21: GpH7-A5/GpH7-B3 variant Q295_08L/GpL16-k0 (antibody, human IgG1, kappa)
heavy 1: not shown
heavy 2: not shown
light: DIVMTQSPLSLPVTPGEPASISCQASESLVHSNRNTYLHWYLQKPGQSPQLLIYKVSNRFSGVPDRFSGSGSGTDFTLKISRVEAEDVGVYYCSQNTHVPPTFGQGTKVEIERTVAAPSVFIFPPSDEQLKSGTASVVCLLNNFYPREAKVQWKVDNALQSGNSQESVTEQDSKDSTYSLSSTLTLSKADYEKHKVYACEVTHQGLSSPVTKSFNRGEC
notes: He Ab; copies: 1 + 1 + 2
B22: GpH7-A5/GpH7-B3 variant Q295_03V/GpL16-k0 (antibody, human IgG1, kappa)
heavy 1: not shown
heavy 2: not shown
light: DIVMTQSPLSLPVTPGEPASISCQASESLVHSNRNTYLHWYLQKPGQSPQLLIYKVSNRFSGVPDRFSGSGSGTDFTLKISRVEAEDVGVYYCSQNTHVPPTFGQGTKVEIERTVAAPSVFIFPPSDEQLKSGTASVVCLLNNFYPREAKVQWKVDNALQSGNSQESVTEQDSKDSTYSLSSTLTLSKADYEKHKVYACEVTHQGLSSPVTKSFNRGEC
notes: He Ab; copies: 1 + 1 + 2

Target: T1, FcγRIIIa extracellular domain, C-terminal His tag (human, UniProt P08637 17-208)
T1 construct: extracellular domain; also called 3a
T1 sequence (P08637 other isoform, or with tags, fused parts or gaps): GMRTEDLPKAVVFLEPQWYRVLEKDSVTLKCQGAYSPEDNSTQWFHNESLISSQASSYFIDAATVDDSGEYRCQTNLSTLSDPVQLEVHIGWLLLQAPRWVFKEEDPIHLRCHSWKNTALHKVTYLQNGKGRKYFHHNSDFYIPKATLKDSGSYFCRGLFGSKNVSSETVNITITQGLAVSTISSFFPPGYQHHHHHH
Test: SPR, binding activity relative to GpH7-A5/GpH7-B3/GpL16-k0 (=100)

Binder	He/Con 3a [%]
B1	61.8
B2	76.6
B3	80.9
B4	67.1
B5	67.8
B6	100
B7	101
B8	73.9
B9	90.4
B10	73.4
B11	74.4
B12	85.6
B13	105
B14	81.8
B15	120
B16	74.9
B17	75.1
B18	73.2
B19	71.9
B20	111
B21	120
B22	86.2
